Measurements taken from a protein production outcome set (Wang et al. 2014).

Assay: label from the status in PepcDB records

| Sequence | protein production |
| --- | --- |
| MQCNICEVRCEINKHSTGRCGTYVSTGNTITQYPGMGYMGAYPISIEEVPLHHFYPSGKFLQIFSKGCNFQCPGCAARMPASSEPSTQQASLSPSEVVKRALKQECLGVVSTLNDPVANYYLFRDLAIQAQEKSLLVGCSTNCYFTSETLEEFGQLVDFVNVGIKGYSDRGYRNCGVTSSAPVFRNISRLFDMGVHVETSIAYSRGNEEDVIKVAEAVSDISPTIPLHVMRFLPFGYAPIELEPSIGEAEKICSDLRRYLDFVYLFNSPGTELLNTYCPECGRLLIEREFHRPFGSRLVKPWLSHKCSCGCSIPVQGKAPTEGFSEAGLMDSYSISQAFSMVHAVLTCLGVLDDYKLMDIWGEDKLMDVWSKVSNPKTLMQIHNMIRQPYSYLEFIKFIAEKANMPEKGEELVSFIHKRLQIVQNLSAGKSSYYVYYCMGSPFFALNAGRMENNLVTFSGGVSINKQLQKEGKLGVSVSPSFINEHNPGVIFVSGFLSRPLDEFYALCQKYGIHADAVTQHRVYEIPPSWDFGSPRWILGLMYITDKLHPGKLEVDLKKEADDFYLQFYGMRFKEARPNRSFHRPSSGIWPHTQTLYNYFEMEVPNQDSTKNFGNEITQPFNILPTCKIKLKE | failed |
| VYLDFENHIKEIQNEIELALIRGDEDAKEILEKRLDKEVKSIYSNLTDFQKLQLARHPDRPYAMDYIDLILKDKYEVFGDRHYNDDKAIVCFVGKIDNVPVVVIGEEKGRGTKNKLLRNFGMPNPCGYRKALKMAKFAEKFNL | failed |
| MSLNYEESNLIVFGVGFDGTTSNRPGARFASSSMRKEFYGLETYSPFLDLDLEDYNICDYGDLEISVGSTEQVLKEIYQETYKIVRDSKVPFMIGGEHLVTLPAFKAVHEKYNDIYVIHFDAHTDLREEYNNSKNSHATVIKRIWDIVGDNKIFQFGIRSGTKEEFKFATEEKHTYMEIGGIDTFENIVNMLNGKNIYLTIDLDVLDASVFPGTGTPEPGGVNYREFQEIFKIIKNSNINIVGCDIVELSPDYDTTGVSTVIACKILRELCLIISDKIKEGHHHHHH | not failed |
| MKKTTLVLSALALSIGFAMGPVSSVVAAETAASSSQQLPSLAPMLEKVMPSVVSINVEGSAPVSSAGARGMPPQFQQFFGDNSPFCQDGSPFQGSPMCQGDLGGLGQGMPSKREFRSLGSGVIIDAGKGYVVTNNHVVDNANKISVKLSDGRSFDAKVIGKDPRTDIALLQLKDAKNLTAIKIANSDQLRVGDYTVAIGNPYGLGETVTSGIVSALGRSGLNVENYENFIQTDAAINRGNSGGALINLNGELIGINTAILAPDGGNIGIGFAIPSNMVKNLTSQMVEFGQVKRGELGIMGTELNSELAKAMKVDAQKGAFISQVVPKSAAAKAGIKAGDIIVSMNGKAINSFAGFRAEIGTLPVGSKMTLGLLRDGKPINVDVVLEQSSHSQVESGNLYTGIEGAELSNSDVSGKKGVKVDSVKPGTAAARIGLKKGDIIMGINQQPVQNLGELRKILDAKPPVLALNIQRGDTSLYLLMQ | failed |
| MMIMKRLLFLVSVCSLCMVGNSQNYQPEKHAVVKSDRGDGRLLSTYAIVHEMLKDTHPQYAYRSGMSAQEFTQWQDGVRAAMVEIMKFPEIKRQPSPVCVKTEKKEGYILEKWEFYPFPKSVSTFLVLKPEHLKGAVPGVLCIPGSGRTKEGLVGEPGICDKLTEDYNNPKVSMALNMVKEGYVAVAVDNAAAGEASDLECYDKGWNYDYDVVSRFLLELGWSWLGYTSYLDMQVLNWMKAQSYIRKDRIVISGFSLGTEPMMVLGVLDKDIYAFVYNDFLCQTQERAVVMTKPDKENRRPFPNSIRHLIPGYWRYFNFPDVVASLAPRPIIFTEGGLDRDFRLVQSAYAASGKPENAEFHHYPKFADKAVRKDVEHLDEGLDSKTYFEAVNVDPPSHYFKNELVIPWLRKVLK | failed |
| MVTPFPEVSEWLCIGQIVGAHGLRGEVKVKPFSDFPERFTVPGCRWLRSPRQPQPYAVTLLRGRFLPRAEQFVVTFAEISDRTAAEALKGAEILVPASDRPPLAANEYHLMDLIGLAVYHQGERVGEVVGLVNAGNDLLEVQLLDPAPKAPQSVYIPFVPAIVPVVDLAARRIEIDPPLGLLPLEHHHHHH | failed |
| MEQRRLASTEWVDIVNEENEVIAQASREQMRAQCLRHRATYIVVHDGMGKILVQRRTETKDFLPGMLDATAGGVVQADEQLLESARREAEEELGIAGVPFAEHGQFYFEDKNCRVWGALFSCVSHGPFALQEDEVSEVCWLTPEEITARCDEFTPDSLKALALWMKRNAKNEAVETETAE | not failed |
| MSGEKIDITPKKDGGVLKLIKKEGQGVVKPTTGTTVKVHYVGTLENGTKFDSSRDRGDQFSFNLGRGNVIKGWDLGVATMTKGEVAEFTIRSDYGYGDAGSPPKIPGGATLIFEVELFEWSAEDISPDRDGTILRTIIVEGSKNSFPNDTSKVLAHCVGTYQGTEFYNREVNFHIGEGSEEGLPEGVERALRRFQLGEKSKIEIRGHKYTYGNSPPAGSNIPVNATLEFTIFLKEFEKVPATWEMTAEEKLDAAKQAKDRGTMYLQKGNLKLAYNKYKRAEEVLEYEKSTDPEKMAERETILNGAYLNLSLVCSKQNEQLECIKWCDKVLETKPGNVKALYRKATALLTMNEVRDAMKLFEKIVEVEPENKAAAQQIIVCRNTIREQNERDKKRFKNLFAKISTEEDKPTNTVEDEDEIVASTSGSSTSNA | not failed |
| MWMKDPVARPLSPTRLQPALPPEAQSVPELEEVARVLAEIPRPLKRRGSMEQAPAVALPPTHKKQYQQIISRLFHRHGGPGPGGRSQSCPPSLRDLRPGQGPLLLPHQLPFHRPAPSQSSPPEQPQSMEMRSVLRKAGSPRKARRARLNPLVLLLDAALTGELEVVQQAVKEMNDPSQPNEEGITALHNAICGANYSIVDFLITAGANVNSPDSHGWTPLHCAASCNDTVICMALVQHGAAIFATTLSDGATAFEKCDPYREGYADCATYLADVEQSMGLMNSGAVYALWDYSAEFGDELSFREGESVTVLRRDGPEETDWWWAALHGQEGYVPRNYFGLFPRVKPQRSKV | not failed |
| MFSNQYIQQRIHKANSLREEGKNPYQNGLKRSLTNAAFLEKYAYVKGLEEPKDKEKCESIVGRVKLLRLMGKACFIKVEDESTILQVYVSQNELNDEFKSLKKHLEVGDIVLVKGFPFATKTGELSIHALEFHILSKTIVPLPEKFHGLSDIELRYRQRYLDLIVNPSVKDVFKKRSLIVSSVRKFFEMEGFLEVETPMMHPIPGGANARPFITYHNALEVERYLRIAPELYLKRLIVGGFEAVFEINRNFRNEGMDHSHNPEFTMIEFYWAYHTYEDLIELSKRLFDYLLKTLNLDSKIIYNDMEVDFNQTSVISYLDALETIGGISKDILEKEDRLLAYLLEQGIKVEPNLTYGKLLAEAFDHFVEHQLINPTFVTQYPIEISPLARRNDSNPNIADRFELFIAGKEIANGFSELNDPLDQLERFKNQVAEKEKGDEEAQYMDEDYVWALAHGMPPTAGQGIGIDRLVMLLTGAKSIKDVILFPAMRPVKNDFNVESEE | failed |
| MSAQVPRELLQLREQVRRQPGDFVAWLMLADAELGMGVTAAGETAVQRALALHPGHPEAVARLGRVRWAQQRHAEAATLLQQASDLVPQHPGIALWLGHALEDAGQPEQAAAAYTRAHKLLPDEPYITAQLLNWRRRLCDWRELDSLAAQVRTAVTQGEAAVEPFAFLSEDASAAEQLACARTRAQAIASSVHPLPAATLRSRGTLQLGFVSNGFSAHPTGLLTVALFEALRRRQPDLQVQLFATSPDDGSDIRARLAQATRMHDVTALGHLATAQHIRNQGIDLLFDLRGWGGGGRPEVFALRPAPVQLNWLAYPGTSGAPWMDYVLGDAIALPTWLEPFYSEQVLRLPRAFQPSDTSRTVAEAPSRAQCGLPDHAVVLCCFNNSYKLNPRSMARMLAVLRAVPGSVLWLLSGPGEADARLRAAAQAQGVHAQRLVFMPKLPHPQYLARYRHADLFLDTHPYNAHTTASDALWAGCPVLTTPGQTFAARVAGSLNHRLGLDEMNVADDATFVAKAIELASDAEALRGVRAQLAEQRLRSGLFDMDGFADDLAALLRGIAQRRGWLGV | failed |
| MWDSENIEELSLVIGIGLDKPDDENLELTQQILVPKIISAKEGSSSDPTQLSITKGKTVHQMMRTSALKHKPTFSQHLRLILLSKSVIADQIGMDAIINQFVRDNGTRRSSYVFITNGRTKDIFNMNDEGEPASNVIYDLTENNKVTIRTMEPVTLGEISEHLTSDDSFLIPHVGKENGKLAINGASIIKNKLWHRDLTPIEVQNISLFSGTVEGGVIDLKRDGHLFSYEVYSSNRKIKTAYKDGKFKFTVTRNIEGRLSEDWNPNEDSFKDSYIKSIEKTVEKRVHETVTSFITEKLQKEIKADVTGLGNEVRIHYPQKWKKISRKWDDDYFSNAEIDYRVNVIVRDFGTKGANKLEHHHHHH | not failed |
| MEYQLQQLASLTLVGIKETYENGRQAQQHIAGFWQRCYQEGVIADLQLKNNGDLAGILGLCIPELDGKMSYMIAVTGDNSADIAKYDVITLASSKYMVFEAQGAVPKAVQQKMEEVHHYIHQYQANTVKSAPFFELYQDGDTTSEKYITEIWMPVKG | not failed |
| MKLGVNLCFAVKRWLEPDRLAGLVRDDLGLEYVQYTYDLTDPWWPDIERDRRAIAYAKAFRKAGLTIESTFGGLASYTYNHFLAPTLELQSLGYQHLKRAIDMTAAMEVPATGMPFGSYSAADALNPARREEIYAIARDMWIELAAYAKRQGLSMLYVEPVPLATEFPSSAADAARLMADLDGRTEIPVRLLVDWGHALFEPLFGPEADMDHWMDLCQPWIAAYHIQQTDGQLDRHWSFTQPGVVTPQRLQDFWDKYALTDQTFFAEILYPFEARDEDVLADMIASVKALKAASPAA | not failed |
| MYLRSYMGWRFWALFFCLCSPSSVSAERLASSYLKVTEEAASSRQLIRYCVDPDWLPYEAIREGEHVGISSDYIRYIESHSNFKFSLVPTTSWSETLNFLQTGRCELTPMLNKTATREQFLHFSHVYFHSPNVLVSLKEQPFLQGFENIGSRTLAVPKGYRLAEYIQHYYPKVKIIEVGSEPAGLEAVLDKRADLFVGSMFSVNAYIQQTGFNHLKIAGWGGPEDELRMGVSLGHEALLPILNQVLDDVDELERIRIYQKWNNITVIDETNYLLIYQVIVGTLLVVFLLATRTFFISRYNRRLTDKNEQLEALRLRLEHTNAELEFLSTHDPLTKLYNRHYFNRQFVHEHRSEISSEGAICLVMLDIDFFKEINDTLGHAVGDNILMELSGVLQHCVRETDVVARWGGEEFVILCHQTSIDLVKTLCQRIAAAIKDYRFSGNVQLTCSFGIAKLVNNEPMQSCFERADKALYQAKALGRNQICVDEFNT | failed |
| WRTIFNAEPECVMIVATDGTLLDINPAGVAAIEADSVGAVIGKRVYSLVVPECQQAFRQLNESVCQGKQGTLEFEIITCRGNRRWMATHAVPVRNEKDGNLVQLSI | failed |
| MKNFVVKTIANAGALAVAVWLLDKITLTGDSTGKKIGTLIVVALVFGLVNFLVKPIVKVLTFPLFILTLGLITLVVNALMLLLTSWLADKLDLSFHVEGFWTAVVGGLIISVVSWALNVVLPDDKD | failed |
| MTAPKITQKFNEVETKTTEILNKVLTDDRYFTVTSSFKQDATLGIEYYVTKVTPKTTEAKKSMVQKTFAYDFEKSIDPTSSYFGTTNRETVLSMAKRKRSVVAINASGWRSNGEVMGLQIKDGVLYKDYDAAGYTGAEACVFFDDGTMKVYGNREVDADILISKGARNSFAFGIWLVKDSKPRTAQMTTWADLNVKHPRQAIGQRSDGTLVIITVDGRSLRSSGITAYDMPSLFLSEGCINAFLLDGGGSSQTAVEGKYINNISDGIERAVVDTLTISYPDDDTDSRFFEVQEGRGLATSLNRRVEFIESKPTWNVLDLGFSPDGLIDNTAKFKKALSDLSEKGGGKLHFPKGTYLIGKQNTTSASEKIELPSNVSIVGERRSYTKLLRNPNHSLDELLRITDHNYIEGIEIDGNSSVNKSSCRLIAGGNIKSFKMKDCSLVNATDRGVSIHGIGKSITIEGMYISNIANECINVAEGEIIKLIDSEITFSGTALWVGNAANIFTKNNLAKSLKTFVRYKNSQNAICSGNIITNNIDRAIWGSVREAVFSDNVFKQCHSDYHLYFIQEDTGTNDLIVTGNSVYSDVEGTAFIRTPSDIDRRRVSGNVGNIPSLNLDLEHHHHHH | not failed |
